Results reported in article doi:10.1101/2021.06.01.446691.

Target: VirB4-like TraB ATPase of the pKM101-encoded type IV secretion system (plasmid pKM101 (carried in E. coli))
Experiment: cryo-EM structure

VirB4-like TraB ATPase of the pKM101-encoded type IV secretion system (enzyme)
stoichiometry N: 12
